Assay results from US20170224780A1 (priority 2014, published 2017).

Assays:
[1] = system: ovaries from 12-day-old neonatal mice; format: cell-based
[2] = system: ovaries from 12-day-old neonatal mice; test: In-vitro culture of whole ovaries incubated with cisplatin with or without AMH, follicle counting; format: cell-based; details: day 4 and day 7 in culture; results not shown
Protocol: Ovaries from 12-day-old neonatal mice were further incubated with a different chemotherapy agent-cisplatin, with or without AMH. Control ovaries were cultured with medium alone or with AMH. Ovaries were removed after day 4 and day 7 in culture and processed for histological analysis. The number of primordial and growing follicles was counted. Primordial follicle count in the presence of AMH and cisplatin is higher than in the presence of cisplatin alone (results not shown).

[3] = system: marmoset ovarian cortical tissues (grafts); test: Xenotransplantation of frozen-thawed marmoset ovarian cortical strips into castrated SCID mice with rAMH treatment (OTCP-TP model); format: in vivo
Description: Five healthy adult female marmoset monkeys (Callithrix jacchus) at the age range of 13 to 23 months were made available for ovaries excision. Fresh bovine ovaries were collected from lactating milking cows, ages 1.5-3 years (n=12). Ovarian human tissues were harvested from eight donors (age range 13-26 years).
Cortical tissue strips were obtained from marmoset (n=15), bovine (n=15) and human (n=46). The cortical tissue was obtained by removal of the underlying stromal tissue. Slow freezing cryopreservation was performed according to previously published protocols. Briefly, tissue fragments were equilibrated with 0.1M sucrose and 1.5M DMSO for 30 minutes following introduction into the cryopreservation device. A multi-gradient slow freezing protocol cooled the samples to −150° C. following by storage in liquid nitrogen (LN).
Prior to transplantation, tissues were thawed rapidly by equilibrating the samples in decreasing DMSO gradient solutions in 0.1M sucrose and cut into 2×3×2 mm pieces (Marmoset, n=29: n=15 for transplantation experiment and n=14 for transplantation+AMH experiment; Bovine, n=37; Human, n=46). Fresh thawed cortex from each experiment was embedded in […] and further studied.
Seven-weeks-old castrated male immunodeficient mice (n=60) were used as recipient animals. Mice were castrated at 4 weeks and maintained at 28° C. under controlled SPF conditions. Xenotransplantation experiments commenced at least 2-weeks post-orchidectomy.
Ovarian tissue transplantation surgical procedures were performed as described previously. Briefly, a longitudinal incision was made in the dorsum of the anesthetized recipient mouse, the skin was lifted and the ovarian cortical strips were inserted subcutaneously. Size of transplanted tissue from all species was 2×3×2 mm. Each graft was attached in place with a 6-0 non-absorbable prolene suture. Transplanted tissues were recovered after three (3) or seven (7) days.
In a separate experiment, frozen marmoset cortical tissues were thawed, 2×3×2 mm cortical strips were prepared (n=14) and transplanted into castrated SCID mice as described above. rAMH, diluted in PBS, was injected (10 μg in 200 μl, per mouse, i.p.) at the time of transplantation and once daily for 3 consecutive days at 10 μg per mouse, while control mice were injected with PBS. Daily injection protocol was determined according to preliminary experiments using labeled rAMH and rAMH dosage was initially determined according to previous studies.
As the first set of experiments indicated maximal follicle activation and PMF loss in all species (in the absence of AMH) at three days post transplantation, the animals were sacrificed three days post transplantation. The grafts were removed and processed for histological follicle counting analysis and immunohistochemistry.
Recovered grafts and control frozen thawed non transplanted samples were fixed in 4% paraformaldehyde, embedded in paraffin and serial 5 μm sections were prepared from the whole grafts for follicle counts and immunohistochemistry. Follicle classification as primordial or growing was performed on every sixth section of Hematoxylin and Eosin stained sections by two independent observers under a light-microscope (slides/graft: 8 for Marmoset, 9 for Bovine, 6 for Human). Only non-atretic follicles with clearly visible oocyte circled by granulosa-cell layers were referred to in results since no significant difference was found in the number of atretic follicles among the groups. […]

B1: rAMH: Anti-mullerian hormone, protein designated by NCBI Accession No. P03971; recombinant AMH (rAMH) (protein, UniProt P03971 452-560, looked up)
Muellerian-inhibiting factor: SAGATAADGPCALRELSVDLRAERSVLIPETYQANNCQGVCGWPQSDRNPRYGNHVVLLLKMQVRGAALARPPCCVPTAYAGKLLISLSEERISAHHVPNMVATECGCR
With B1 the “numbers of primordial follicles, PM together with AMH relative to PM alone” value [1] was “significantly greater numbers”, the “primordial or growing follicle numbers, AMH alone vs regular media alone” value [1] was “No difference” and the “ratio of growing to dormant follicles, PM+AMH vs PM alone” value [1] was “significantly improved”. For the same molecule, the “primordial follicle count, AMH and cisplatin vs cisplatin alone” value [2] was “higher”, the “collagen levels (Sirius red staining)” value ([3]; grafts three days post transplantation, both transplanted groups had a marked increase vs untransplanted control) was “no effect” and the “PMF (primordial follicle) count, mean follicle count per section±SE” value ([3]; marmoset grafts three days post transplantation, rAMH 10 μg per mouse i.p. at transplantation and once daily for 3 days, transplanted control 7.66±6.99, untransplanted control 148±37.06, p<0.001) was 56.33±12.12. The “additionally saved PMF compared to transplanted control” value ([3]; marmoset grafts three days post transplantation, rAMH 10 μg per mouse i.p. daily) was 86.40%, the “GF/PMF ratio (growing to primordial follicles)” value ([3]; transplanted + rAMH group compared to untransplanted control, ratio significantly increased in transplanted control, FIG. 4B) was “normalized” and the “Ki-67 expressing proliferating cells (immunofluorescence, Z-stack reconstruction)” value ([3]; transplanted grafts with vs without rAMH administration) was “Major reduction”.
